Laboratory results as given in patent publication US20230024933.

T1: phosphotyrosine substrate peptide ENDpYINASL
T1 chain: ENDYINASL

T2: phosphoserine substrate peptide RRApSVA
T2 chain: RRASVA

B1: EYA1 isoform A (human splice variant EYA1A, exon 10 included) (protein)
chain: MLLFPQVAVKTEPMSSSETASTTADGSLNNFSGSAIGSSSFSPRPTHQFSPPQIYPSNRPYPHILPTPSSQTMAAYGQTQFTTGMQQATAYATYPQPGQPYGISSYGALWAGIKTEGGLSQSQSPGQTGFLSYGTSFSTPQPGQAPYSYQMQGSSFTTSSGIYTGNNSLTNSSGFNSSQQDYPSYPSFGQGQYAQYYNSSPYPAHYMTSSNTSPTTPSTNATYQLQEPPSGITSQAVTDPTAEYSTIHSPSTPIKDSDSDRLRRGSDGKSRGRGRRNNNPSPPPDSDLERVFIWDLDETIIVFHSLLTGSYANRYGRDPPTSVSLGLRMEEMIFNLADTHLFFNDLEECDQVHIDDVSSDDNGQDLSTYNFGTDGFPAAATSANLCLATGVRGGVDWMRKLAFRYRRVKEIYNTYKNNVGGLLGPAKREAWLQLRAEIEALTDSWLTLALKALSLIHSRTNCVNILVTTTQLIPALAKVLLYGLGIVFPIENIYSATKIGKESCFERIIQRFGRKVVYVVIGDGVEEEQGAKKHAMPFWRISSHSDLMALHHALELEYL
B2: mutant EYA1A in which exon 10 had been removed (EYA1AΔe10) (protein)
chain: MLLFPQVAVKTEPMSSSETASTTADGSLNNFSGSAIGSSSFSPRPTHQFSPPQIYPSNRPYPHILPTPSSQTMAAYGQTQFTTGMQQATAYATYPQPGQPYGISSYGALWAGIKTEGGLSQSQSPGQTGFLSYGTSFSTPQPGQAPYSYQMQGSSFTTSSGIYTGNNSLTNSSGFNSSQQDYPSYPSFGQGQYAQYYNSSPYPAHYMTSSNTSPTTPSTNATYQLQEPPSGITSQAVTDPTAEYSTIHSPSTPIKDSDSDRLRRGSDGKSRGRGRRNNNPSPPPDSDLERVFIWDLDETIIVFHSLLTGSYANRYGRECDQVHIDDVSSDDNGQDLSTYNFGTDGFPAAATSANLCLATGVRGGVDWMRKLAFRYRRVKEIYNTYKNNVGGLLGPAKREAWLQLRAEIEALTDSWLTLALKALSLIHSRTNCVNILVTTTQLIPALAKVLLYGLGIVFPIENIYSATKIGKESCFERIIQRFGRKVVYVVIGDGVEEEQGAKKHAMPFWRISSHSDLMALHHALELEYL

Columns and labels:
[1] = molecular target: histone γH2A.X^pY142, endogenous in primary murine fibroblast cultures, P27661
[2] = molecular target: T1, phosphotyrosine substrate peptide …
[3] = molecular target: T2, phosphoserine substrate peptide RRApSVA

Protein | γH2A.X^pY142 foci per nucleus after NCS exposure [1] | tyrosine phosphatase activity (dephosphorylation assay with phosphorylated peptide) [2] | serine phosphatase activity (dephosphorylation assay) [3]
B1 | EYA1A overexpression induced premature γH2A.X^pY142 dephosphorylation and clearance of DSBs | confirmed increased tyrosine phosphatase activity of EYA1A | –
B2 | deletion of EYA1A critical exon 10 (EYA146e10) normalized premature γH2A.X^pY142 dephosphorylation and γH2A.X clearance | – | dephosphorylation assays using the synthetic serine phosphatase substrate RRApSVA demonstrated superior serine phosphatase activity
